This passage reports protein stability index results from the supplement of paper PMC10724198.

± gives the standard deviation of the averaged measurements.
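Also: PSI is a weighted mean of sequencing reads over stability bins, variants kept only with over 10 reads, mCherry proximal and sfGFP distal, peptide attached via GGGS linker.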

The test system of this series is Saccharomyces cerevisiae. The series is described as follows: protein stability index of tFT-peptide fusion (C-terminal peptide) (PSI (0-1 scale)); higher = more stable (slower turnover). The conditions noted are these: genetic background: wild type; temperature: 30 C.
As for RELGAWSFITSV, the protein stability index worked out at 0.705 ± 0.014. As for RESIEGGGAPRD, the protein stability index is 0.747 ± 0.11. REVRRNINKRRE yielded a protein stability index of 0.67 ± 0.11. With REVYLFSSSCRG the figure was 0.623 ± 0.027. Next, REWDRRGRSHHF: 0.769 ± 0.069; REWVAGGGVVGV: 0.679 ± 0.031.

On to RFFSGPCCGRSP, for which the protein stability index was 0.6995 ± 0.002. With RFGDWALGARVG the figure was 0.72 ± 0.032. Next, RFGGGPCRSVGC: 0.7331 ± 0.0059. Next, RFGRGAGWGLGG: 0.66 ± 0.0092; RFLLNPPLRCPP: 0.747 ± 0.041; RFPLTPSPLRAT: 0.6948 ± 0.0039. The sequence RFPRFVVPTRTR showed a protein stability index of 0.852 ± 0.058. For RFRVKSYLYFCP, the protein stability index was 0.614 ± 0.03. Sequence RFSDGSHLFGDR displayed a protein stability index of 0.524 ± 0.14. With RFSTRAVRLGPC the figure was 0.705 ± 0.19; with RFTNHPTRQTTG, 0.676 ± 0.088.

RFVCVSVCPVRV yielded a protein stability index of 0.487 ± 0.065. With RFWFWWVVRDGS the figure was 0.617 ± 0.08.

RGCAPDRIPAPV returned a protein stability index of 0.645 ± 0.023. In the case of RGEERGGTRPAG, the protein stability index worked out at 0.6788 ± 0.0037. Next, RGEPPSAKEIAR: 0.727 ± 0.045; RGEVSGRVGRVG: 0.684 ± 0.058. Turning to RGFRPLGSGILI, the protein stability index was found to be 0.689 ± 0.051. On to RGGDGGGLRTRD, for which the protein stability index was determined as 0.688 ± 0.037.

RGGEGTQRRKLR had a protein stability index of 0.717 ± 0.077. With RGGGAARGGGVG the figure was 0.658 ± 0.009. RGGGGGGQVAVG displayed a protein stability index of 0.711 ± 0.049. For the sequence RGGGGGRKVSVG, the protein stability index came out at 0.658 ± 0.062. With RGGGRGGSRTGA the figure was 0.712 ± 0.033. RGGNVDSRKMNR: the protein stability index was found to be 0.722 ± 0.018.

In the case of RGGPQARRLRPY, the protein stability index came out at 0.706 ± 0.063. For RGGVGRLEGCRG, the protein stability index was 0.684 ± 0.066. With RGGWRGVWGHVV the figure was 0.599 ± 0.033; with RGKTIQGNADPK, 0.672 ± 0.032; with RGLYQCFLLDIV, 0.472 ± 0.047. Next, RGMVPREKHQNS: 0.683 ± 0.013. Next, RGPARFYVRVSV: 0.498 ± 0.0077; RGPFSGKCEPSM: 0.663 ± 0.049; RGPGAWFVSWWA: 0.7886 ± 0.0029.

RGPGMVRAFAEA: the protein stability index is 0.679 ± 0.011. RGQTSLTGERNK gave a protein stability index of 0.701 ± 0.055. With RGRCGRLSRAGA the figure was 0.727 ± 0.041.

RGRGKRNDPEKR had a protein stability index of 0.681 ± 0.036. With RGRGSLPGFKSL the figure was 0.654 ± 0.058; with RGRTLVVPAPDT, 0.673 ± 0.017; with RGSFGAWTVGGQ, 0.59 ± 0.026. With RGSIKSYNTRKT the figure was 0.728 ± 0.009; with RGTYRYNFSQKK, 0.652 ± 0.12. RGVDVWQGRTVP displayed a protein stability index of 0.6879 ± 0.0031. Next, RGVGGRALGVGR: 0.678 ± 0.038.

RGVGGRGIGFPR displayed a protein stability index of 0.6826 ± 0.0058.

As to RGVPWVVFSVGA, the protein stability index came to 0.542 ± 0.015. For RGWGVLCGGGWG, the protein stability index was found to be 0.556 ± 0.053. With RHDSYKSLHSNL the figure was 0.743 ± 0.05; with RHFFRYYLDHPS, 0.617 ± 0.035. RHGDGGRGRVDG yielded a protein stability index of 0.736 ± 0.1. As to RHIKIADYKTLT, the protein stability index came to 0.686 ± 0.04. As to RHILPNKCRLHH, the protein stability index is 0.714 ± 0.2. The sequence RHKVVLQPRPQV had a protein stability index of 0.649 ± 0.039.

RHPPVPCIAQIR returned a protein stability index of 0.658 ± 0.024. Next, RHPTITAPTPTP: 0.748 ± 0.063. Next, RHRLTPLTQYPS: 0.677 ± 0.062; RIGDVIRIAEIK: 0.729 ± 0.069; RIIRPRSTKDHP: 0.745 ± 0.14. Next, RIKKKKKIKRNN: 0.7 ± 0.02; RILLSPLSQSQP: 0.695 ± 0.025; RIPLYAFLPPID: 0.745 ± 0.066. As to RIPTALLAPYAQ, the protein stability index was determined as 0.649 ± 0.03. Consider RKAPLPDRGIPW, for which the protein stability index worked out at 0.708 ± 0.017. Next, RKCDKVGCDEKA: 0.66 ± 0.02; RKEEKKEGKGTR: 0.663 ± 0.062.

RKEESKKEKNKI displayed a protein stability index of 0.65 ± 0.11. Next, RKEKRKRRGEAN: 0.662 ± 0.061; RKGDRAQRWRDL: 0.655 ± 0.12. With RKIRKKRERKGE the figure was 0.714 ± 0.2; with RKKGKLESKKQK, 0.742 ± 0.12. With RKKINKRLCLGN the figure was 0.692 ± 0.033; with RKKQYEKKSEKP, 0.689 ± 0.11; with RKLYMCMRTKGD, 0.673 ± 0.046.
